How the values were obtained:
Assay in all cases: IEDB peptide-MHC binding, purified MHC/competitive/radioactivity; ≥ and ≤ were set here for values at or beyond the usual limits of such assays
Details in all cases: source organism: Hepacivirus hominis
HLA-A*03:01 = molecular target: HLA-A*03:01
HLA-A*11:01 = molecular target: HLA-A*11:01
HLA-A*02:01 = molecular target: HLA-A*02:01

HLHAPTGSGK gave an IC50 (HLA-A*03:01) of 17 nM.
SVPAEILRK was tested, and the IC50 (HLA-A*11:01) was 13 nM.
For HLIFCHSKK, the IC50 (HLA-A*03:01) was 400 nM.
RLLAPITAY gave an IC50 (HLA-A*03:01) of 4 nM.
For TLHGPTPLLY, the IC50 (HLA-A*03:01) was 112 nM.
In the case of WMNSTGFTK, the IC50 (HLA-A*03:01) is reported as 189 nM.
Work on HLIFCHSKKK yielded an IC50 (HLA-A*03:01) of 385 nM.
In the case of AVCTRGVAK, the IC50 (HLA-A*03:01) is reported as 385 nM.
Sequence VLAALAAYCL has an IC50 (HLA-A*02:01) of 100 nM.
